The results in this text go back to publication doi:10.1101/2023.05.22.541692.

In this test the target is AtCYT6-CTD (C-terminal cystatin domain of phytocystatin 6) (UniProt Q8H0X6). Kind of test: Enzyme inhibition kinetics. Particulars: pH 5.5; 25 °C; 100 mM NaCl; 20 mM citric acid pH 5.5.
Sequence of UniProt Q8H0X6 (Q8H0X6 whole entry, the tested form may be a part): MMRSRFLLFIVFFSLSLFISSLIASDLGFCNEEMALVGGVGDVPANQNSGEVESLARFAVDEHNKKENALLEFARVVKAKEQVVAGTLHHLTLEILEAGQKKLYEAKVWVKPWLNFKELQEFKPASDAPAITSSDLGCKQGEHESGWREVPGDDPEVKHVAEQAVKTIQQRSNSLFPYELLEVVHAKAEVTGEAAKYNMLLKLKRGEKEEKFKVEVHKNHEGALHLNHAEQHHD

“AtLEGβ (legumain isoform β, vacuolar processing enzyme β), activated catalytic domain” showed a Ki of 0.61 ± 0.23 nM.
